Biological target: the molecule itself
Assay: crystal structure; crystals by hanging-drop vapour diffusion at 22°C (15% PEG 3350, 0.2 M sodium formate, 0.1 M HEPES pH 7.5); free enzyme at 2.3 Å and putrescine-soaked at 2.1 Å; four molecules in the asymmetric unit; dimer interface analysed with PISA

B1: YgjG putrescine aminotransferase from Escherichia coli (enzyme, UniProt P42588 1-459, looked up)
chain: MNRLPSSASALACSAHALNLIEKRTLDHEEMKALNREVIEYFKEHVNPGFLEYRKSVTAGGDYGAVEWQAGSLNTLVDTQGQEFIDCLGGFGIFNVGHRNPVVVSAVQNQLAKQPLHSQELLDPLRAMLAKTLAALTPGKLKYSFFCNSGTESVEAALKLAKAYQSPRGKFTFIATSGAFHGKSLGALSATAKSTFRKPFMPLLPGFRHVPFGNIEAMRTALNECKKTGDDVAAVILEPIQGEGGVILPPPGYLTAVRKLCDEFGALMILDEVQTGMGRTGKMFACEHENVQPDILCLAKALGGGVMPIGATIATEEVFSVLFDNPFLHTTTFGGNPLACAAALATINVLLEQNLPAQAEQKGDMLLDGFRQLAREYPDLVQEARGKGMLMAIEFVDNEIGYNFASEMFRQRVLVAGTLNNAKTIRIEPPLTLTIEQCELVIKAARKALAAMRVSVEEA
modifications: PLP covalently linked to Lys300 via a Schiff base linkage (free enzyme)
notes: YgjG putrescine aminotransferase (EC 2.6.1.82), Escherichia coli; The seven N-terminal and one C-terminal residues and the His tag are not visible in the electron density; also called PATase; source: E. coli B834(DE3), purified (Ni-NTA, ion-exchange chromatography, size-exclusion chromatography); not shown: His6, C-terminal, kept
  stoichiometry N: 2
